{"source": "the nanobody polyreactivity screen of Harvey et al. (2022)"}
{"assay": "yeast display, Sf9 membrane polyspecificity reagent, FACS + sequencing; frameworks hold sequencing errors", "procedure,_shortened": "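Synthetic nanobody libraries on Saccharomyces cerevisiae BJ5465 were galactose-induced for 36–48 hours, stained 1 hour at 4 °C with 10% biotinylated, detergent-solubilized Sf9 membrane reagent and enriched on streptavidin microbeads. FACS then separated cells into low and high (top ~1%) gates by anti-HA (expression) and streptavidin (reagent binding) fluorescence. Genes were colony-PCR amplified, MiSeq 2 × 250 sequenced and CDR-length filtered. A clone's polyreactivity label is that of its gate of origin.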"}
{"sequence": "QVQLVESGGGLVQAGGSLRLSCAASGRIFHSKAMGWYRQAPGKERELVAAITWSTGRTYYADSVKGRFTISRDNAKNTVYLQMNSLKPEDTAVYYCFRFSYYTGDYWGQGTQVTVSS", "polyreactivity (PSR sort gate)": "high polyreactivity"}
{"sequence": "QVQLVESGGGLVQAGGSLRLSCAASGRIFHYNDMVWYRQAPGKEREFVATIRYSGGSTYYADSVKGRFTISRDNAKNTVYLQLNSLKPEDTAVYYCATSRRYLRFRNYYGYDYWGQGTQVTVSS", "polyreactivity (PSR sort gate)": "high polyreactivity"}
{"sequence": "QVQLVESGGGLVQAGGSLRLSCAASGRIFHYYAMGWYRQAPGKERELVAAITSSGGSTYYADSVKGRFTISRDNAKNTVYLQMNSLKPEDTAVYYCAAGLIVGRFLRYDYWGQGTQVTVSS", "polyreactivity (PSR sort gate)": "high polyreactivity"}
{"sequence": "QVQLVESGGGLVQAGGSLRLSCAASGRIFIGNAMGWYRQAPGKERELVAAITWSGDDSTYYADSVKGRFTISRDNAKITVYLQMNSLKTEDTAVYYCAAYSYYYEYNYWGQGTQVTVSS", "polyreactivity (PSR sort gate)": "low polyreactivity"}
{"sequence": "QVQLVESGGGLVQAGGSLRLSCAASGRIFINVLGWSRQAPGKETELVATITNSGGSTYYADSVKGRFTISRDNAKNTVYLQMNSLKPEDTAVYYCAKRSYHRYGVYRYDYWGQGTQLTVSS", "polyreactivity (PSR sort gate)": "high polyreactivity"}
{"sequence": "QVQLVESGGGLVQAGGSLRLSCAASGRIFIRNAMGWYRQAPGKERELVAAITWSGGGTYYADSVKGRFTISRDNAKNTVYLQMNSLKPEDTAVYYCNVDITGYEDDYWGQGTQVTVSS", "polyreactivity (PSR sort gate)": "low polyreactivity"}
{"sequence": "QVQLVESGGGLVQAGGSLRLSCAASGRIFISNAKGWYIQAPGKERELVAAITWIGDRTYYADSVKGRFTISRDNAKITVYLEMNSLKPEDTAVYYCNRVTSRVSGRYSYEYWGQVTQVTVSS", "polyreactivity (PSR sort gate)": "high polyreactivity"}
{"sequence": "QVQLVESGGGLVQAGGSLRLSCAASGRIFIYYAMGWDRQAPGKERELVAAISWGGGRTYYADSVKGRFTISRDNAKNTVYLQMNSLKPEDTAVYYCAAGVYTGQHEYDYWGQGTQVTVSS", "polyreactivity (PSR sort gate)": "low polyreactivity"}
{"sequence": "QVQLVESGGGLVQAGGSLRLSCAASGRIFIYYAMGWYRQAPGKERELVAAISWGGGRTYYADSVKGRFTITRDNAKNTVYLQINSLKPEDTAVYYCAAGVYTGQHEYDYWGQGTQVTVSS", "polyreactivity (PSR sort gate)": "low polyreactivity"}
{"sequence": "QVQLVESGGGLVQAGGSLRLSCAASGRIFIYYAMGWYRQAPGKERELVAAITRGGNTNYADSVKGRFTISRDNAKNTVYLQMNSLKPEDTAVYYCAAAIRYGSRHRGYWGQGTQVTVSS", "polyreactivity (PSR sort gate)": "low polyreactivity"}
{"sequence": "QVQLVESGGGLVQAGGSLRLSCAASGRIFKDNAMGWYRQAPGKERELLATIDSGGDTNYADSVKGRFTISRDNAKNTVYLQMNSLKPEDTAVYYCNTEGFLSAVFAFGYWGQGTQVTVSS", "polyreactivity (PSR sort gate)": "low polyreactivity"}
{"sequence": "QVQLVESGGGLVQAGGSLRLSCAASGRIFKDYAMGLYRQAPGKERELVAGIDYRGGSTYYADSVKGRFTISRDNAKNTVYLQMNSLKPEDNAVYYCAADSLISIYDYWGQGTQVTVSS", "polyreactivity (PSR sort gate)": "low polyreactivity"}
{"sequence": "QVQLVESGGGLVQAGGSLRLSCAASGRIFKFNAMGWYREAPGKERELVAAITTGGGSTYYADSVKGRFTISRDNAKNTVYLQMNSLKPEDTAVYYCATDRRHEYSSRRYYYWGQGTQVTVSS", "polyreactivity (PSR sort gate)": "high polyreactivity"}
{"sequence": "QVQLVESGGGLVQAGGSLRLSCAASGRIFKFYTMGWDRQAPGKERELVASIDSTGGSTYYADSVKGRFTISRDNAKNTVYLQMNSLKPEDTAVYYCAAEWIWSSNWYKKYDYWGQGSQVTVSS", "polyreactivity (PSR sort gate)": "high polyreactivity"}
{"sequence": "QVQLVESGGGLVQAGGSLRLSCAASGRIFKGYAMGWYRQAPGKERELVAAITWRGGTTYYADSVKGRFTISRDNAKNTVYLQMNSLKPEDTAVYYCATTRYPRSYQEFGYWGQGTQVTVSS", "polyreactivity (PSR sort gate)": "high polyreactivity"}
{"sequence": "QVQLVESGGGLVQAGGSLRLSCAASGRIFKGYAMGWYRQAPGKERELVAAITWRGGTTYYADSVKGRFTISRDNAKNTVYLQMTSLKPEDTAVYYCARARPTGYNYWGQGTQVTVSS", "polyreactivity (PSR sort gate)": "high polyreactivity"}
{"sequence": "QVQLVESGGGLVQAGGSLRLSCAASGRIFKNNAMGWYRQAPGKERELVAGISRSGGRTYYADSVKGRFTISRDNAKNTVYLQMNSLKPEDTAVYYCNAYAYYSHGVTTTYDYWGQGTQVTVSS", "polyreactivity (PSR sort gate)": "high polyreactivity"}
{"sequence": "QVQLVESGGGLVQAGGSLRLSCAASGRIFKRSVMGWYRQAPGKERELVAAITGRGGSTYYADSVKGRFTISRDNAKNTVYLQMNSLKPEDTAVYYCNAKDAEHYERFNYWGQGTQVTVSS", "polyreactivity (PSR sort gate)": "low polyreactivity"}
{"sequence": "QVQLVESGGGLVQAGGSLRLSCAASGRIFKRYAMGWYRQAHGKERELVASITWSGGSTYYADSVKGRFTISRDNAKNTVYLQMNSLKPEDTEVYYCAARRTATTSRAYYYWGQGTQVTVSS", "polyreactivity (PSR sort gate)": "high polyreactivity"}
{"sequence": "QVQLVESGGGLVQAGGSLRLSCAASGRIFKRYAMGWYRQAPGKERELVAAITRSGTRTYYADSVKGRFTISRDNAKNTVYLQMNSLKPEDTAVYYCAAALGWYSAFGYWGQGTLVTVSS", "polyreactivity (PSR sort gate)": "high polyreactivity"}
{"sequence": "QVQLVESGGGLVQAGGSLRLSCAASGRIFKRYAMGWYRQAPGKERELVAAITYNSGSTYYADSVKGRFTISRDNAKNTVYLQMNSLKPEDTAVYYCAAEKWSDQSPRGDYWGQGTQVTVSS", "polyreactivity (PSR sort gate)": "low polyreactivity"}
{"sequence": "QVQLVESGGGLVQAGGSLRLSCAASGRIFKSYVMGWYRQAPGKERELVAAITRTGGSTYYADSVKGRFTISRDNAKYTVYLQMNSLTPEDTAVYYCNARYSWPRATWYDYWGQGTQVTVSS", "polyreactivity (PSR sort gate)": "high polyreactivity"}
{"sequence": "QVQLVESGGGLVQAGGSLRLSCAASGRIFKTNAMGWYRQAPGKERELVAAISWRGVGTYYADSVKGRFTISRDNAKNTVYLQMNSLKPEDTAVYYCAARWTVPRDTAPSKGYDYWGQGTQVTVSS", "polyreactivity (PSR sort gate)": "low polyreactivity"}
{"sequence": "QVQLVESGGGLVQAGGSLRLSCAASGRIFKTYTMGWYRQAPGKERELVAVITSGGGTYYADSVKGRFTISRDNAKNTVYLQMNSLKPEDTAVYYCAARGLESPYGYWGQGTQVTVSS", "polyreactivity (PSR sort gate)": "low polyreactivity"}
{"sequence": "QVQLVESGGGLVQAGGSLRLSCAASGRIFKVNAMGWYRQAPGKERELVAVINSRGGSTYYADSVKGRFTISRDNAKNTVYLQMNSLKPEDTAVYYCAAPLTYFKRVYYWGQGTQVTVSS", "polyreactivity (PSR sort gate)": "high polyreactivity"}
{"sequence": "QVQLVESGGGLVQAGGSLRLSCAASGRIFKWNAMGWYRQAPGKERELVAAISLSGGSTYYADSVKGRFTISRDKAKNTVYLQMNSLKPEDTAVYYCNAYAYHRYGYWGQGTQVTVSS", "polyreactivity (PSR sort gate)": "high polyreactivity"}
{"sequence": "QVQLVESGGGLVQAGGSLRLSCAASGRIFKWNAMGWYRQAPGKERELVAAISTSGGNTYYADSVKGRFTISRDYAKNTVYLQMNSLKPEDTAVYYCAATYPNSLRQVGYWGQGTQVTVSS", "polyreactivity (PSR sort gate)": "high polyreactivity"}
{"sequence": "QVQLVESGGGLVQAGGSLRLSCAASGRIFKYNAMGWYRQAPGKERELVAAIRRSGGSTYYADSVKGRFTISRDNAKNPVYLQMNSLNPEDTAVYYCAATGYVGGIYGHYPRGYWGQGTQVTVSS", "polyreactivity (PSR sort gate)": "high polyreactivity"}
{"sequence": "QVQLVESGGGLVQAGGSLRLSCAASGRIFKYNAMGWYRQAPGKERELVAAISGRGVSTYYADSVKGRFTISRDNAKNTVYLQMNSLKPEDTAVYYCAAETVHGSADFDYWGQGTKVTVSS", "polyreactivity (PSR sort gate)": "low polyreactivity"}
{"sequence": "QVQLVESGGGLVQAGGSLRLSCAASGRIFKYYAMGWFRQAPGKERELVAAISSGSSTNYADSVKGRFTISRDTAKNTVYLQMNSLKPEDTAVYYCAAKYYRSKFDFWGQGTQVTVSS", "polyreactivity (PSR sort gate)": "high polyreactivity"}
{"sequence": "QVQLVESGGGLVQAGGSLRLSCAASGRIFKYYAMGWYRQAPGKERELVAAINRDGGRTYYADSVKGRFTISRDNAKNTVYLQMNRLKPDDTAVYYCAASYGYWGQGSQVTVSS", "polyreactivity (PSR sort gate)": "low polyreactivity"}
{"sequence": "QVQLVESGGGLVQAGGSLRLSCAASGRIFKYYAMGWYRQAPGKERELVAAISRGGSTYYADSVKGRFTISRDNAKNTVYLQMNSLKPEDTAVYYCNRLSNNREYDYWGQGTQVTVSS", "polyreactivity (PSR sort gate)": "high polyreactivity"}
